Measurements published in paper PMC5022050, “The Crystal Structure of Peroxiredoxin Asp f3 Provides Mechanistic Insight into Oxidative Stress Resistance and Virulence of Aspergillus fumigatus” (Scientific Reports, 2016).
Where a chain is given by its changes, count along the chain named. Names and notes keep the numbering of the source.

Biological target: the molecule itself
Assay: AUC; sedimentation equilibrium, PBS pH 7.4, ~5, ~15 and ~25 uM protein, 10000, 20000 and 30000 rpm, 25 °C; global fit with Sedfit and Sedphat

B1: Asp f3 wild type, recombinant, C-terminally His-tagged (enzyme)
chain: MGSGLKAGDSFPSDVVFSYIPWSEDKGEITACGIPINYNASKEWADKKVILFALPGAFTPVCSARHVPEYIEKLPEIRAKGVDVVAVLAYNDAYVMSAWGKANQVTGDDILFLSDPDARFSKSIGWADEEGRTKRYALVIDHGKITYAALEPAKNHLEFSSAETVLKHL
notes: also called Aspf3 WT; WT Asp f3; source: E. coli ClearColi BL21(DE3), purified (Ni-NTA, size-exclusion on Superdex 75); not shown: His6, C-terminal, kept
- stoichiometry N: 2

B2: Asp f3 C31S/C61S variant, recombinant, C-terminally His-tagged (enzyme)
chain: B1 chain with C32S, C62S
notes: also called serine variant; mimic of the reduced Asp f3; source: E. coli ClearColi BL21(DE3), purified (Ni-NTA, size-exclusion on Superdex 75); not shown: His6, C-terminal, kept
- stoichiometry N: 2
